Columns and labels:
TrmJ-NAL = assay: Conjugation of TrmJ with a fluorescent peptide (SDS PAGE); format: biochemical; details: 200 nM enzyme, 37° C., after an hour of reaction time
Description: Conjugation of TrmJ: A concentration of 200 nM of OaAEP1b-C247A-4351 was used to conjugate 10 μM of TrmJ-NAL with 50 μM of a short fluorescence peptide synthesized by Genscript: GIGGIYRK-FITC (SEQ ID NO:21). This reaction was carried out in a 20 mM NaH2PO4, pH 6.5 at 37° C. for 1 hour with a final volume of 500 μL. A volume of 50 µL of the reaction was mixed with 5×SDS loading dye after 5, 10, 20, 30 and 60 minutes. The amount of conjugated TrmJ-NAL at all time points was then analyzed using SDS PAGE.
To evaluate OaAEP1b-C247A-Δ351 conjugation capability, a protein of 20 kDa, tRNA methyltransferase, TrmJ were conjugated. TrmJ was modified to include the C-terminal OaAEP1b-C247A-Δ351 preferred tripeptide recognition motif (Asn-Ala-Leu). Using 200 nM of OaAEP1b-C247A-Δ351, TrmJ present in the solution was able to conjugate with a short fluorescence peptide consisting of an N-terminal Gly/Ile (GIGGIYRK-FITC) (SEQ ID NO: 21). The conjugation rate at 37° C. was analyzed using SDS PAGE at […] different time points.

[1] = test system: peptides PIE {EDANS} YNAL and GIK {DABSYL} SIP; assay: FRET ligation kinetics assay; format: biochemical
peptides PIE {EDANS} YNAL and GIK {DABSYL} SIP, sequence (as listed by the source): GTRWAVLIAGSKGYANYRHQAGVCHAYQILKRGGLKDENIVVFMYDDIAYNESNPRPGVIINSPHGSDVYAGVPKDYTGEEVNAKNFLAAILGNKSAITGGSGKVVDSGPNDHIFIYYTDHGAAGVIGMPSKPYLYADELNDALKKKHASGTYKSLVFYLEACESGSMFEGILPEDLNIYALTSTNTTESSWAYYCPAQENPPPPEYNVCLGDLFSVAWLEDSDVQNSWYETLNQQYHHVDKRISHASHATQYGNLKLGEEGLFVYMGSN
Description: Kinetics assay: The kinetic properties of the peptide ligation of the constitutively active PAL were studied using a FRET assay. Two peptides synthesized by GenScript: PIE {EDANS} YNAL (SEQ ID NO:18) and GIK {DABSYL} SIP (SEQ ID NO:19) were mixed at a molar ratio of 1:3. Upon ligation, the peptide PIE {EDANS} YNGIK {DABSYL} SIP (SEQ ID NO: 20) is produced. 50 nM of PAL enzyme is mixed with various concentrations of the peptide mixture. The EDANS fluorescence signal was measured with an excitation wavelength of 336 nm and an emission wavelength of 490 nm. A reduction in EDANS fluorescence signal occurs upon ligation of the two peptides due to quenching by DABSYL. The variation in fluorescence signal for each substrate mixture concentration was measured after addition of the enzyme to initiate the reaction. The rate of decrease in fluorescence signal during the first 30 seconds after enzyme addition was plotted against the substrate concentration to obtain the Vmax, kcat and KM values for each enzyme.
Next, using a FRET ligation assay, the ligase activity of the truncated OaAEP1b-C247A-Δ351 was compared with its acid-activated zymogen counterpart. Briefly, 50 nM of either enzyme was added to a mixture of two peptides A: PIE (EDANS) YNAL (SEQ ID NO:18) and B: GIK (DABSYL) SIP (SEQ ID NO:19). These two peptides were mixed in a A:B molar ratio of 1:3. Upon ligation, the fluorescence signal emission of the EDANS moiety of A (λem=490 nm) becomes quenched by the DABSYL moiety of B. (FIG. 7A). This assay the ligation rate to be followed between both peptides in real-time, giving access to the kinetic parameters of the truncated enzyme.

[2] = Storage stability of the purified enzyme; format: physicochemical; details: −80° C.
Description: Refolding and purification of constitutively active OaAEP1b-C247A-4351 using dialysis method: With all steps performed at 4° C., protein purification was achieved by resuspending thawed pellets in 30 mL of lysis buffer (100 mM Bis-Tris, pH 6.5, 500 mM NaCl, 10% (v/v) glycerol), sonicating the pellets followed by clearing the lysates by centrifugation at 58,000 g for 45 min. The insoluble fraction was resolubilized in 10 mL of resolubilizing buffer (50 mM Bis-Tris, pH 6.5, 150 mM NaCl, 1 mM EDTA, 50 mM Glycine, 8 M urea) overnight, with agitation. The concentration of denatured protein was determined using nanodrop and diluted to ˜2 mg mL-1 with buffer 1 (50 mM Bis-Tris, pH 6.5, 150 mM NaCl, 500 mM L-Arginine, 1 M urea, 0.25 mM L-Glutathione oxidized, 2.5 mM L-Glutathione reduced). The diluted denatured protein was dialyzed against buffer 2 (50 mM Bis-Tris, pH 6.5, 150 mM NaCl, 200 mM L-Arginine, 0.125 mM L-Glutathione oxidized, 1.25 mM L-Glutathione reduced) for 8 hr, followed by two buffer exchanges with buffer 3 (20 mM Bis-Tris, pH 6.5, 150 mM NaCl), for a duration of 8 hr for each buffer exchange. The refolded proteins were purified by affinity chromatography (HisTrap column, Cytiva), followed by size exclusion chromatography (HiLoad 16/600 Superdex 200, Cytiva). The proteins eluted as monomers during size exclusion purification. […]

[3] = 50 nM enzyme, peptides A:B molar ratio 1:3

B1: OaAEP1b-C247A-Δ351: truncated OaAEP1b-C247A construct, residues 352-474 deleted, D351 as C-terminus; constitutively active peptide asparaginyl ligase (protein)
chain: GTRWAVLIAGSKGYANYRHQAGVCHAYQILKRGGLKDENIVVFMYDDIAYNESNPRPGVIINSPHGSDVYAGVPKDYTGEEVNAKNFLAAILGNKSAITGGSGKVVDSGPNDHIFIYYTDHGAAGVIGMPSKPYLYADELNDALKKKHASGTYKSLVFYLEACESGSMFEGILPEDLNIYALTSTNTTESSWCYYCPAQENPPPPEYNVCLGDLFSVAWLEDSDVQNSWYETLNQQYHHVDKRISHASHATQYGNLKLGEEGLFVYMGSNPANDNYTSLDGNALTPSSIVVNQRDAD
conjugation of TrmJ with GIGGIYRK-FITC (TrmJ-NAL): most of TrmJ was labelled with FITC
Km [1, 3]: 8.16 µM
Vmax [1, 3]: 6.40 RFU/see
ligation activity relative to acid-activated zymogen counterpart (fold less) ([1]; FRET ligation assay): about 2 fold
storage stability [2]: up to two years

From patent US20250283065A1, “TRUNCATED POLYPEPTIDES HAVING PROTEIN LIGASE ACTIVITY AND METHODS OF PRODUCTION THEREOF” (NANYANG TECHNOLOGICAL UNIVERSITY, priority 2022, published 2025)
